Measurements published in the RNAGym collection of RNA variant scans (doi:10.1073/pnas.2313332121).

B1: TPR t1 (parent)
chain: GACCAAUCUGCCCUCAGAGCUCGAGAACAUCUUCGGAUGCAGAGGAGGCAGGCUUCGGUGGCGCGAUAGCGCCAACGUCCUCAACCUCCAAUGCAUCCCACCACAUGAUGAUGCCUGAAGAGCCUUGGUUUUUUG

Variants of: B1
Assay: polymerase ribozyme fitness, log enrichment relative to wild type (log ratio); higher = more active; in vitro selection for triplet polymerase activity
Outline: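 The heterodimeric triplet polymerase ribozyme's subunits were each mutagenized into PCR-built libraries and transcribed. Every library was selected once, in triplicate, by annealing with a biotinylated primer, the partner subunit and triplets, incubating frozen at −7 °C, gel-excising extended constructs, capturing on streptavidin beads and running RT-PCR. Input and output libraries were Illumina-sequenced, with genotypes kept only at ≥10 input reads and ≥1 read per output. Fitness, from inverse-variance-weighted replicate averages, is the base-2 logarithm of genotype enrichment over wild-type enrichment.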

Going from GACCAAUAUGCCCUGAGAGCUCGAGAACAUCUUCGGAUGCAGAGGAGGCAGGCUUCGGUGGCGUGAUAGCGCCAACGUCCUGAACCUCAAAUGCAUCCCACCACAUGAAGAUGCCUGAAGAGCCUUGGUUUUUUG to GACCAAUAUGCUGUCAGAGCUCGAGAACAUCUUCGGAUGCAGAGGAGGCAGGCUUCGGUGGCGCGAUAACGCCAACGUCCUCAACCUCCAAUGCAUCUCACCACAUGAUGAUGCCUGAAGAGCCUUGGUUUUUUG, the “polymerase ribozyme fitness (log ratio)” value rises from -6.66 to -4.08.

Going from GACCAAUAUGCCUUCAGAGCUCGAGAACAUAUUCGGAUGCAGAGGAGGCAGGCUUCGGUGUCGCGAUAGCGCCAACGUCCUCAACCUCCAAUGCAACCCACCACAUGAUGAUGCCUGAAGAGCGUUGGUUUUUUG to GACCAAUAUGCCCUCAGAGCUCGAGAAAAUCUUCGGAUGCAGAGGAGGCAGGCUUCGGUGGCUCGAUAGCGCCAACCUCCUCAACAUCCAAUGCAUCCCACCACAUGAUGACGCCUGAAGAGCCUUGGUUUUUUG, the “polymerase ribozyme fitness (log ratio)” value falls from -5.55 to -6.46.

Compared with GACCAAUAUGCCCUCAGAGCUCGAGAAUAUCUUCGGAUGCAGAGGAGCCAGGCUUCUGUGGCGCGAUAGCGCCAACGUCCUCAACCUCCAAUGCAUCCCACCACAUGAUGAUGCCUGAAGAGCCUUCGUUUUUUG, GACCAAUAUGCUCUCAGAGCUCGAGAACAUCUUCGGAUGCAGAGGAGGCAGGCUUCGGUGGCGCGAUAGCGCCAACGUCCUCAACCUCCUAUGCAUCCCACCACAUGAUGAUGCCUCAAGAGCCUUGGUUUUUUG is higher in “polymerase ribozyme fitness (log ratio)” value: -3.86 for the first, -0.863 for the second.

Compared with GACCAAUAUGCCCUCAGAGCUCGAGAACAUCUUCGGAUGCAGAGGAGGCAGGCUUCGGUGGCGCGAUAGCGCCAACGUCCUCAUCCUCCAAUGCAUCCCACCACAUGAUGAUGCCUGAAGAGCCUUGGUUUUUUG, GACCAAUAUGCGCCCAGAGCUCGAGAACAUCUUCGGAUGCAGAGGAGGCAGGCUUCGGUGGCGCGAUAGCGCUAACCUCCUCAACCUCCAAUGCAUCCCAACACAUGAUGAUGCCUGAAGAGCCUUGGUUUUUUG is lower in “polymerase ribozyme fitness (log ratio)” value: 0.295 for the first, -1.62 for the second.

First: GACCAAUAUGCCCUCAGAGCUCGAGAACAUCUUCGGAUGCAGUGGAGGCAGGCUUCGGUGGCGCGAUAGCGCCAACGUCCUCAACCUCCAAUGCAUCCCACCACAUGAUGAUGCCUGAAGAGCCUUGGUUUUUUG
Second: GACCAAUAUGCCUUCAGAGCUCGAGAACAUCUUCGGAUGCAGAGGAGGCAGGCUGCGGUGGCGCGAUAACGCCAACGUCCUCAACCUCCAAUGCAUCCCACCACAUGAUGAUGCCUGAAGAGCCUUGGUUUUUUG
The “polymerase ribozyme fitness (log ratio)” value of the first is higher: -1.01 for the first, -2.21 for the second.

Compared with GACCAAUAUGCCCUCAGAGUUCGAGAACAUCUUCGGAUGCAGAGGAGGCAGGCUUCGGUAGCGCGAUAGCGCCAACGUCCUCAACCUCCAAUGCAUCUCACCACAUGAUGAUGCCUGAAGAGCCUUGGUUUUUUG, GACCAAUAUGCCCUCAGAGCUUGAGAACAUCUUCGGAUGCAGAGGAGGCAGGGUUCGGUGACGCGAUAGCGCCAACGUCCUCAACCUCCAAUGCAUCCCACCACAAGAUGAUGCCUGGAGAGCCUUGGUUUUUUG is lower in “polymerase ribozyme fitness (log ratio)” value: -0.889 for the first, -4.47 for the second.

Going from GACCAAUAUGCCCUCAGAGCUCGAGAACAUCUUCGGAUGCAGAGGAGGCAGGCUUCGGUGGCGCGAUAGCGCCGACGUCCUCAACCUCCAAUGCAUCCCACCACAUGAUGAUGCCUGAAGAGCCUUGGUUUUUUG to GACCAAUAUGCCCUCAGAGCUCGAGAACAUCUUCGGAUGCAGAGGAGGCAGGCUUCGGUGGCGCGAUAGCGCCUACGUCCUCAACCUCCAAUGCAUCCCACCACAUGAUGAUGCCUGAAGAGCCUUGGUUUUUUG, the “polymerase ribozyme fitness (log ratio)” value falls from 0.152 to -0.0501.

GACCAAUAUGCCCUCAGAGCUUGAGAACAUCUUCGGAUGCAGAGGAGGCAGGCUUCCGUGGCGCGAUAGCGCCAUCGUCCUCAACCUCCAAUGCAUUCCACGACAUGAUGAUGCCUGAAGAGCCUUGGUUUUUUG and GACCAAUAUGCCCUCAGAGCUCGAGACCAUCUGCGCAUGCAUAGGAGGCAGGCUUCGGUGGCGCGAUAGCGCCAACGUCCUCAACCUCCAAUGCAUCCCACCACAUGAUCAUCCCUGAAGAGCCUUGGUUUUUUG are within 0.2 log units of each other in “polymerase ribozyme fitness (log ratio)” value: -6.66 for the first, -6.47 for the second.

Going from GACCAAUAUGCCCUCAGAGCUCGAGAGCAUCUUCGGAUGCAGAGGAGGCAGGCUUUGGUGGUGCGAUAGCGCCAACGUCCUCAACCUCCAAUGCAUCCCACCACAUGAUGAUGCCUGAAGAGCCUUGGUUUUUUG to GACCAAUAUGCACUCAGAGCUCGAGAACAUCUUCGGAUGCAGAGGAGGCAGGCUUCGGUGGCGCGAUAGCGCCAACGUUUUCAACCUCCAAUGCAUCCCACCACAUGAUGAUGUCUGAAGAGCCUUGGUUUUUUG, the “polymerase ribozyme fitness (log ratio)” value falls from -1.49 to -4.99.

Going from GACCAAUAUGCCCUCAGAGCUCGAGAACAUCUUCGGAUGCUGAGGAGGUAGGCUUCGGUGGCGCGAUAGCGCCAACGUCCUCAACCUCCAAUGCAUCCCACCACAUGAUGAUGCCUGAAGAGCCUUGGUUUUUUG to GACCAAUAUGCCGUCACAGCUCGAGAACAUCUUCGGAUGCAGAGGAGGCAGGCUUCGGUGGCGCGAUAGCGCCAACGUCCUUAACCUCCAAUGCAUCCCACCACAUGAUGAUGCCUGAAGAGCCUUGGUUUUUUG, the “polymerase ribozyme fitness (log ratio)” value falls from -1.56 to -4.

First: GACCAAUAUGCCCUCAGAGCUCGAGAACAUCUUCGGAUGCAGAGGCGGCAGGCUUGGGUGGCGCGAUAGCGCCAACGUCCUCAACCUCCAAUGCAUCCCACCACAUGAUGAUGCCUGAAGAGCCUUAGUUUUUUG
Second: GACCAAUAUGCCCUCAGAGCUCGAGAACAUCUUCGGAUGCAGAGGAGGCAGGCUUCGGUGGCGCGAUAGCGCCAACGUCCUCAACCUCCAAUGCAUCCCACCACAUGAUGAUGCCUGAAGUGCCUUGGUUUUUUG
The “polymerase ribozyme fitness (log ratio)” value of the first is lower: -3.01 for the first, 2.6 for the second.

First: GACCAAUAUGCUCUCAGAGCUCGAGAACAUCUUCGGAUGCAGAGGAGGCAGGCUUCGGUGGCGCGAUAGCGCCAACGUCCUCAACCUCCAAUGCAUCCCACCACAUGAUGAUGUCGGAAGAGCCUUGGUUUUUUG
Second: GACCAAUAUGCCCUCAGAGCUCGAGAACAUCUUCGGAUGCAGAGGAGGCUGACUUCGGUGGCGCGAUAGCGCCAACGUCCUCAACCUCCAAUGCAUCCCACCACAUGAUGAUGCCUGAAGAGCCUUGGUUUUUUG
The “polymerase ribozyme fitness (log ratio)” value of the first is lower: -4.98 for the first, -2.23 for the second.

Compared with GACCAAUAUGCCCUCAGCGCUCGAGAACAUCUUCGGAUGCAGAGGAGGCAGGCUUGGGUGGCGCGAUAGCGCCAACGUCCUCAACCUCCAAUGCGUCCCACCACAUGAUGAUGCCUGAAGAGCCUUGGUUUUUUG, GACCAAUAUGCCCUCAGAGCUCGAGAACAUCUUCGGAUGCAGAGGAGGCAGGCUUCGGUGGCGCGAUAGCGCCAACGUCCUCAACCUCCAAUGCAUCCCACCACAUGGUGAUGCCUGAAGAGCCUUGGUUUUUUG is higher in “polymerase ribozyme fitness (log ratio)” value: -2.26 for the first, -1.84 for the second.

Going from GACCAAUAUGACCUCAGAGCUCGAGAACAUCUUCGGAUGCAGAGGAGGCAUGCUUCGGUGGCGCGAUAGCGCCAACGUCCUCAACCUCCAAUGCAUCCCACCACAUGAUGAUGCCUGAAGAGCCUUGGUUUUUUG to GACCAAUAUGCACUCAGAGCUCGAGAACAUCUUCGGAUGCAGAGGAGGCAGGCUUCGGUGGCGCGAUAGCGCCAACGUCCUCAAUCUCCAAUGCAUCCCACCACAUGAUGAUGCCUGAAGAGCCUUGGUUUUUUG, the “polymerase ribozyme fitness (log ratio)” value rises from -2.89 to -0.437.

GACCAAUAUGCCCUCAGAGCUCGAGAACAUCUUCGGAUGCAGAGGAGGCAGGCUUCGGUGGCGCGAUAGCGCCAACGUCCUCAACCUCCAGUGCAUCUCACCACAUGAUGAUGCCUGAAGAGCCUUGGUUUUUUG and GACCAAUAUGCCCUCAGAGCUGGAGAACAUCUUCGGAUGCAGAGGAGGCAGGCUUCGGUGUCGCGAUAGCGCCAACGUCCUCAACCUCCAAUGCAUCCCACCACAUGAUGAUGCCUGAAGUGCCUUGGUUUUUUG are within 0.2 log units of each other in “polymerase ribozyme fitness (log ratio)” value: -1.37 for the first, -1.38 for the second.

Compared with GACCAAUAUGCCCUCAGAGCUCGAGAACAUCUUCGGAUGCAGCGGAGGCAGGCUUCGGUGGCGCGAUAGCGCCAACGUCCUCAACGUCCAAUGCAUCCCACCACAUGAUGAUGCCUGAAGAGUCUUGGGUUUUUG, GACCAAUAUGCACUCAGAGCUCGAGAACAUCUUCGGAUACAGAGGAGGCAGGCUUCGGUGGCGCGAUAGCGCCAACGUCCUCAACCUCCAAUGCAUCCCACCACAUGAUGAUGCCUGAAGAGCCUUGGUUUUUUG is higher in “polymerase ribozyme fitness (log ratio)” value: -2.96 for the first, -0.403 for the second.

GACCAAUAUGCCCUCAGAGCUCGAGAACAUCUUCGGAUGCAGAGGAGGCUGGCUUCGGUGGCGCGAUAGCGCCAACGUCCUCAACCUCAGAUGCAUCCCACCACAUGAUGAUGCCUGAAGAGCCUUGGUUUUUUG and GACCAAUAUGCCCUCAGAGCUCGAGAACAUCUUCGGAUGCAGAGGAGGCAGGCUUCGGUGGCGCGAUAGCGCCCACGUCCUCAACCUCCAAUCCAUCCCACCACAUGAUGAUGCCAGAAGAGCCUUGGUUUUUUG are the same in “polymerase ribozyme fitness (log ratio)” value: -2.46 for the first, -2.46 for the second.

First: GACCAAUAUGCCCUCAGAGCUCGGGAACAUCAUCGGAUGCAGAGGAGGCAGGCUUCGGUGGCGCGAUAGCGCGAACGUCCUCAACCUCCAAUGCAUCCCACCACAUGAUGGUGCCUGAAGAGCCUUGGUUUUUUG
Second: GACCAAUAUGCGCUCAGAGCUCGAGAACAUCUUCGGAUCCAGAGGAGGCAGGCUUCGGUGGCCCGAUAGCGCCAACGGCCUCAACCUCCAAUGCAUCCCACCACAUGAUGAUGCCUUAAGAGCCUUGGUUUUUUG
The “polymerase ribozyme fitness (log ratio)” value of the first is lower: -4.24 for the first, -2.3 for the second.

First: GACCAAUAUGCCCUCAGAGCUCGAGAACAUCUUCGGAUGCAGAGGAGGCCGGCUUCGGUGGAGCGAUAGCGCCAACGUCCUAAAACUUGAAUGCAUCCCACCACAUGAUGAUGCCUGAAGUGCCUUGGUUUUUUG
Second: GACCAAUAUGCCCUCAGAGCUGGAGAACAUCUUCGGAUGCAGAGGAGGCAGGCUUCGGUGGCUCGAUAGCGCCAACGUCCUCAACCUCCAAUGCAUCCCACCACAUGAUGAUGCCUGAAGAGCCUUGGGUUUUUG
The “polymerase ribozyme fitness (log ratio)” value of the first is higher: -3.62 for the first, -3.84 for the second.

Compared with GACCAAUAUGCCCUCAGAGCUCGAGUACAUCUUCGGAUGCAGAGGAGGCAGGCUUCGGUGGCGCGAUAGCGCCAACGUCCUCAACCUCCAAUGCAUCCCACCACAUGAUGAUGCUUGAAGAGCCUUGGUUUUUUG, GACCAAUAUGCCCUCCGAGCUCGAGAACAUCUUCGGAUGUAGAGGAGGCAGGCUUCGGUGGCGCGAUAGCGACAACGUCCUCAACCUCCAAGGCAUCCCACCACAUGAUGAUGCCUGAAGAGUCUUGGUAUUUUG is higher in “polymerase ribozyme fitness (log ratio)” value: -5.1 for the first, -3.93 for the second.

Compared with GACCAAUAUGCCCUCAGAGCUCGAGAACAUCUUCGGCUGCAGAGGAGGCAGGCUUCGGUGGCGCGAUAGCGCCAACGUCCUCAACCUCCAAUGCAUCCCACCACAUGAUGAUGCCUGAAGAGCCUUGGUUUUUUG, GACCAAUAUGCGCUCAGAGCUCGAGAACAUCUUCGGAUGCAGAGGAGGCAGGCUUCGGUGGCGAGAUAGCGCCAACGUCCUCAACCUCCAAUGCAUCCCACCACAUGAUGAUGCCUGAAGAGACUUGGUUUUUUG is lower in “polymerase ribozyme fitness (log ratio)” value: 0.0805 for the first, -6.53 for the second.
